Results from the supplement of paper PMC9112550, “Optimization of the antimicrobial peptide Bac7 by deep mutational scanning” (BMC Biology, 2022).

Test system: Escherichia coli TOP10
Test: shrunken log2 fold change of peptide-encoding DNA abundance (4.5 h post-induction vs induction); higher = less antimicrobial activity (less host growth inhibition)
Settings: time post-induction: 4.5 h; library: site-saturation at positions 5, 18, 19, 20
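Further: peptides expressed intracellularly from a pBAD plasmid library in pooled LB shake-flask culture, induced with 0.3% L-arabinose, DNA abundance read by NGS, three biological replicates, DESeq2 with apeglm shrinkage.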

Sequence	shrunken log2 fold change
RRIRERPPRLPRPRPRPWWHPRP	-0.523
RRIRYRPPRLPRPRPRPDRMPRP	-0.566
RRIRRRPPRLPRPRPRPAYDPRP	0.0406
RRIRHRPPRLPRPRPRPAEIPRP	0.000898
RRIRTRPPRLPRPRPRPGPQPRP	0.0198
RRIRWRPPRLPRPRPRPTETPRP	0.0028
RRIRNRPPRLPRPRPRPWSVPRP	-0.328
RRIRNRPPRLPRPRPRPVIRPRP	-0.164
RRIRRRPPRLPRPRPRPFYWPRP	-0.34
RRIRMRPPRLPRPRPRPYVDPRP	-0.249
RRIRVRPPRLPRPRPRPHYGPRP	-0.0301
RRIRKRPPRLPRPRPRPHIKPRP	-0.0411
RRIRKRPPRLPRPRPRPGIIPRP	-0.000605
RRIRKRPPRLPRPRPRPGVQPRP	0.228
RRIRRRPPRLPRPRPRPCKNPRP	0.0778
RRIRKRPPRLPRPRPRPYPAPRP	0.289
RRIRVRPPRLPRPRPRPHADPRP	0.00219
RRIRQRPPRLPRPRPRPSRNPRP	-0.0593
RRIRARPPRLPRPRPRPASEPRP	0.285
RRIRRRPPRLPRPRPRPIRHPRP	0.307
RRIRCRPPRLPRPRPRPSDTPRP	-0.134
RRIRIRPPRLPRPRPRPRSEPRP	-0.0944

Sequence	shrunken log2 fold change
RRIRRRPPRLPRPRPRPKLEPRP	0.297
RRIRTRPPRLPRPRPRPVRIPRP	-0.0431
RRIRWRPPRLPRPRPRPWITPRP	-0.0174
RRIRYRPPRLPRPRPRPCCNPRP	0.00367
RRIRRRPPRLPRPRPRPNTEPRP	0.119
RRIRWRPPRLPRPRPRPNAEPRP	0.181
RRIRHRPPRLPRPRPRPKPIPRP	-0.0951
RRIRKRPPRLPRPRPRPFHVPRP	-0.265
RRIRMRPPRLPRPRPRPWLEPRP	-0.00871
RRIRLRPPRLPRPRPRPPNLPRP	-0.321
RRIRVRPPRLPRPRPRPSREPRP	0.0823
RRIRRRPPRLPRPRPRPWTMPRP	-0.257
RRIRSRPPRLPRPRPRPHPNPRP	-0.239
RRIRTRPPRLPRPRPRPLEPPRP	0.021
RRIRRRPPRLPRPRPRPNWVPRP	0.00352
RRIRYRPPRLPRPRPRPSWTPRP	-1.11
RRIRSRPPRLPRPRPRPADLPRP	0.274
RRIRWRPPRLPRPRPRPMTQPRP	0.0159
RRIRPRPPRLPRPRPRPGDLPRP	0.076
RRIRMRPPRLPRPRPRPCFCPRP	0.0295
RRIRERPPRLPRPRPRPNYRPRP	-0.000813
RRIRVRPPRLPRPRPRPSLEPRP	0.163

Sequence	shrunken log2 fold change
RRIRARPPRLPRPRPRPMFAPRP	0.52
RRIRWRPPRLPRPRPRPKQTPRP	0.578
RRIRDRPPRLPRPRPRPEDHPRP	1.08
RRIRIRPPRLPRPRPRPHGSPRP	-0.261
RRIRARPPRLPRPRPRPWMSPRP	0.0814
RRIRCRPPRLPRPRPRPLYEPRP	-0.43
RRIRSRPPRLPRPRPRPTDPPRP	-0.000503
RRIRNRPPRLPRPRPRPRWIPRP	0.0158
RRIRRRPPRLPRPRPRPGPLPRP	0.415
RRIRMRPPRLPRPRPRPKVRPRP	0.00262
RRIRFRPPRLPRPRPRPLEDPRP	-0.0439
RRIRRRPPRLPRPRPRPINTPRP	-0.364
RRIRIRPPRLPRPRPRPHKGPRP	-0.145
RRIRPRPPRLPRPRPRPWMDPRP	-0.934
RRIRRRPPRLPRPRPRPPWPPRP	0.667
RRIRPRPPRLPRPRPRPPCSPRP	-0.232
RRIRTRPPRLPRPRPRPWYPPRP	-0.255
RRIRFRPPRLPRPRPRPNINPRP	-0.536
RRIRMRPPRLPRPRPRPIMQPRP	0.0343
RRIRDRPPRLPRPRPRPIGAPRP	-0.173
RRIRQRPPRLPRPRPRPDIPPRP	-0.811
RRIRMRPPRLPRPRPRPKVCPRP	0.0971

Sequence	shrunken log2 fold change
RRIRDRPPRLPRPRPRPSTQPRP	0.445
RRIRQRPPRLPRPRPRPGMDPRP	0.342
RRIRYRPPRLPRPRPRPKPIPRP	0.0874
RRIRLRPPRLPRPRPRPFHFPRP	-0.58
RRIRNRPPRLPRPRPRPYRPPRP	-0.379
RRIRNRPPRLPRPRPRPETEPRP	-0.0793
RRIRQRPPRLPRPRPRPMHYPRP	-0.276
RRIRNRPPRLPRPRPRPHKDPRP	-0.737
RRIRYRPPRLPRPRPRPFQKPRP	-0.0884
RRIRVRPPRLPRPRPRPRGWPRP	0.666
RRIRQRPPRLPRPRPRPQCYPRP	-0.168
RRIRMRPPRLPRPRPRPDESPRP	2.38
RRIRCRPPRLPRPRPRPYHDPRP	-1.05
RRIRYRPPRLPRPRPRPMKTPRP	-0.0156
RRIRNRPPRLPRPRPRPHDTPRP	-0.267
RRIRKRPPRLPRPRPRPCMIPRP	0.0302
RRIRKRPPRLPRPRPRPDVVPRP	-0.0061
RRIRGRPPRLPRPRPRPDIRPRP	0.454
RRIRWRPPRLPRPRPRPVDKPRP	-0.0524
RRIRQRPPRLPRPRPRPCVFPRP	-0.049
RRIRQRPPRLPRPRPRPALEPRP	0.275
RRIRVRPPRLPRPRPRPYCKPRP	-1.15

Sequence	shrunken log2 fold change
RRIRDRPPRLPRPRPRPYMEPRP	-0.000464
RRIRFRPPRLPRPRPRPMKSPRP	-0.198
RRIRWRPPRLPRPRPRPCDCPRP	-0.291
RRIRGRPPRLPRPRPRPITFPRP	-0.148
RRIRPRPPRLPRPRPRPTQTPRP	0.147
RRIRRRPPRLPRPRPRPSLNPRP	0.00555
RRIRSRPPRLPRPRPRPCPPPRP	-0.244
RRIRFRPPRLPRPRPRPPKGPRP	-0.0971
RRIRTRPPRLPRPRPRPCYEPRP	-0.549
RRIRIRPPRLPRPRPRPPTHPRP	-0.184
RRIRHRPPRLPRPRPRPWHFPRP	-0.0331
RRIRIRPPRLPRPRPRPPMWPRP	0.00227
RRIRIRPPRLPRPRPRPYVGPRP	-0.384
RRIRCRPPRLPRPRPRPWFAPRP	-0.183
RRIRSRPPRLPRPRPRPRERPRP	0.431
RRIRARPPRLPRPRPRPPDGPRP	1.3
RRIRHRPPRLPRPRPRPTNSPRP	-0.258
RRIRCRPPRLPRPRPRPMKEPRP	-0.18
RRIRSRPPRLPRPRPRPLAKPRP	0.358
RRIRDRPPRLPRPRPRPRPEPRP	0.538
RRIRYRPPRLPRPRPRPLEAPRP	0.0153
